± gives the standard error. Variants at the floor of the assay were thinned out.
B1: glmS ribozyme (parent)
chain: AUAAAAGCGCCAGAACUACAGAAAUGUAGUUGACGAGGAGGAGGUUUAUCGAAUUUUCGGCGGAUGCCUCCAAA

Tests used:
Details in all cases: with glucosamine-6-phosphate
glucosamine-6-phosphate [1] = variants of: B1; assay: self-cleavage kobs at 40 uM GlcN6P; higher = faster cleavage; RNA array
In short: (§1)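 Using a hybridised Cy3 probe at 37 °C, barcoded ribozyme variants transcribed in situ by E. coli RNA polymerase on sequenced MiSeq chips were monitored across tiles imaged over ~14 h. The flow contained glucosamine-6-phosphate from 40 μM to 10 mM in HEPES/KCl/Mg(OAc)2 buffer. Signals were normalised to baseline and to non-cleaving reference variants before per-tile medians were fit to one- or two-exponential decays to yield kobs. Weighted Michaelis–Menten fits across concentrations gave kcat and KM.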

glucosamine-6-phosphate [2] = variants of: B1; assay: self-cleavage kobs at 640 uM GlcN6P; higher = faster cleavage; RNA array
In short: as §1

glucosamine-6-phosphate [3] = variants of: B1; assay: self-cleavage kobs at 2500 uM GlcN6P; higher = faster cleavage; RNA array
In short: as §1

glucosamine-6-phosphate [4] = variants of: B1; assay: self-cleavage kobs at 10000 uM GlcN6P; higher = faster cleavage; RNA array
In short: as §1

glucosamine-6-phosphate [5] = variants of: B1; assay: self-cleavage kobs at 160 uM GlcN6P; higher = faster cleavage; RNA array
In short: as §1

Variant | self-cleavage kobs at 40 uM GlcN6P (glucosamine-6-phosphate [1]) [s⁻¹] | self-cleavage kobs at 640 uM GlcN6P (glucosamine-6-phosphate [2]) [s⁻¹] | self-cleavage kobs at 2500 uM GlcN6P (glucosamine-6-phosphate [3]) [s⁻¹] | self-cleavage kobs at 10000 uM GlcN6P (glucosamine-6-phosphate [4]) [s⁻¹] | self-cleavage kobs at 160 uM GlcN6P (glucosamine-6-phosphate [5]) [s⁻¹]
A6U A33U | < 1e-05 | < 1e-05 | < 1e-05 | < 1e-05 | –
A6G A53C C58A C61A | < 1e-05 | – | – | < 1e-05 | –
C34A G35U G37A U49A U56C | < 1e-05 | < 1e-05 | < 1e-05 | < 1e-05 | –
A48C G51U | < 1e-05 | < 1e-05 | – | < 1e-05 | –
U31G G44A G51U C61U C70G | < 1e-05 | – | – | – | –
G63C A64U | < 1e-05 | < 1e-05 | < 1e-05 | < 1e-05 | –
A12G C58U C61U | < 1e-05 | – | – | – | –
A12U G41U A42G | 0.000102 ± 1.6e-05 | – | – | 0.00149 ± 0.0003 | –
U47G A48U A52C | < 1e-05 | – | – | < 1e-05 | –
A33U C61U C70U | < 1e-05 | – | < 1e-05 | – | –
G43C U47A | < 1e-05 | < 1e-05 | < 1e-05 | – | –
A39G G40A | 0.000261 ± 8e-05 | 0.00167 ± 0.00076 | 0.00889 ± 0.0023 | – | –
G9U C34A G35C G43U | < 1e-05 | – | < 1e-05 | – | –
U30A C34U C68G | 0.000169 ± 6.6e-05 | 0.000629 ± 0.00024 | – | 0.000202 ± 6.3e-05 | –
G7A A39C G51U | < 1e-05 | – | < 1e-05 | – | < 1e-05
A6C C11G G29U C34G G51C | < 1e-05 | – | – | – | –
G32C G44C | < 1e-05 | – | < 1e-05 | < 1e-05 | < 1e-05
G29A C50G A53U G66U | 5.27e-05 ± 2.6e-05 | – | – | – | –
G7C A15U G59C | < 1e-05 | < 1e-05 | < 1e-05 | < 1e-05 | < 1e-05
C8A G40U | < 1e-05 | < 1e-05 | < 1e-05 | < 1e-05 | < 1e-05
G9U A48G | < 1e-05 | < 1e-05 | – | < 1e-05 | < 1e-05
A42U U46G C50U C70U | < 1e-05 | – | – | < 1e-05 | –
G13U G29U A52G C67G | 6.42e-05 ± 1.9e-05 | – | – | 8.86e-05 ± 1.8e-05 | –

Variant | self-cleavage kobs at 40 uM GlcN6P (glucosamine-6-phosphate [1]) [s⁻¹] | self-cleavage kobs at 640 uM GlcN6P (glucosamine-6-phosphate [2]) [s⁻¹] | self-cleavage kobs at 2500 uM GlcN6P (glucosamine-6-phosphate [3]) [s⁻¹] | self-cleavage kobs at 10000 uM GlcN6P (glucosamine-6-phosphate [4]) [s⁻¹] | self-cleavage kobs at 160 uM GlcN6P (glucosamine-6-phosphate [5]) [s⁻¹]
A42U U69A | 0.00293 ± 0.00038 | 0.0164 ± 0.0051 | 0.0275 ± 0.012 | 0.101 ± 0.036 | 0.00511 ± 0.0011
G41C G51A A52U C67A | < 1e-05 | – | – | < 1e-05 | –
G9A C68G | < 1e-05 | < 1e-05 | < 1e-05 | < 1e-05 | < 1e-05
U65A C70U | 0.000142 ± 1.8e-05 | 0.000871 ± 0.00012 | 0.00273 ± 0.0009 | 0.00403 ± 0.0008 | 0.00024 ± 4.6e-05
A42C C61A G66U | < 1e-05 | – | < 1e-05 | – | –
A36G G60A | < 1e-05 | < 1e-05 | – | – | < 1e-05
C8U G37C A42U U55C | < 1e-05 | – | – | – | –
G9C U57C C71A | < 1e-05 | – | – | < 1e-05 | –
A6G C58G C61U | < 1e-05 | – | – | < 1e-05 | –
G32U A33C U45G U65A | < 1e-05 | < 1e-05 | < 1e-05 | < 1e-05 | –
G41U G62A G63U | < 1e-05 | – | – | < 1e-05 | –
C34A G41C A53G U54A U56G | < 1e-05 | – | – | < 1e-05 | –
A6G A33U C58G C67U C71A | 5.47e-05 ± 2.5e-05 | 0.000593 ± 0.00019 | 0.000109 ± 4.9e-05 | – | 9.68e-05 ± 2.9e-05
G35C A48U | < 1e-05 | – | < 1e-05 | < 1e-05 | –
G35C A48C | < 1e-05 | < 1e-05 | < 1e-05 | < 1e-05 | < 1e-05
G7U U45C | < 1e-05 | < 1e-05 | < 1e-05 | < 1e-05 | < 1e-05
U55C C68A | < 1e-05 | < 1e-05 | < 1e-05 | – | < 1e-05
A14C G43U | < 1e-05 | < 1e-05 | < 1e-05 | – | < 1e-05
C10G G35A | < 1e-05 | < 1e-05 | – | – | < 1e-05
G9A G35A | < 1e-05 | < 1e-05 | – | – | < 1e-05
A48C A64C | < 1e-05 | – | < 1e-05 | – | < 1e-05
G32C U47G U55G U65C U69G | 0.000245 ± 8.5e-05 | – | – | 0.000357 ± 9.5e-05 | –
A15U C16A G40A C68U U69A | < 1e-05 | – | – | < 1e-05 | –

Variant | self-cleavage kobs at 40 uM GlcN6P (glucosamine-6-phosphate [1]) [s⁻¹] | self-cleavage kobs at 640 uM GlcN6P (glucosamine-6-phosphate [2]) [s⁻¹] | self-cleavage kobs at 2500 uM GlcN6P (glucosamine-6-phosphate [3]) [s⁻¹] | self-cleavage kobs at 10000 uM GlcN6P (glucosamine-6-phosphate [4]) [s⁻¹] | self-cleavage kobs at 160 uM GlcN6P (glucosamine-6-phosphate [5]) [s⁻¹]
G13C A48G G66U C71G | < 1e-05 | – | – | < 1e-05 | –
C34G A53U G63U A64G | < 1e-05 | – | – | < 1e-05 | –
C70G | 0.000246 ± 5.2e-05 | 0.0014 ± 0.00021 | 0.000576 ± 4.7e-05 | 0.00395 ± 0.00093 | 0.000401 ± 9.4e-05
G40C U54C | 8.26e-05 ± 2.6e-05 | – | 0.00131 ± 0.00028 | 0.00203 ± 0.00044 | –
G40C U54G | 0.000126 ± 1.3e-05 | 0.000766 ± 0.00015 | 0.0025 ± 0.00059 | 0.00251 ± 0.00031 | 0.000127 ± 3e-05
C11U G29A G32U C50G | 7.73e-05 ± 3.1e-05 | – | – | 7.84e-05 ± 2.3e-05 | –
U46C C61G | < 1e-05 | < 1e-05 | < 1e-05 | – | < 1e-05
A14U A53G | 0.000202 ± 2.5e-05 | 0.00204 ± 0.00026 | 0.00365 ± 0.00059 | 0.00969 ± 0.0011 | 0.000311 ± 5.2e-05
C8A G62U | < 1e-05 | – | – | 5.53e-05 ± 1.6e-05 | < 1e-05
G13A U49A A64G | < 1e-05 | < 1e-05 | – | – | < 1e-05
G13A A39U C61U | < 1e-05 | – | < 1e-05 | – | –
A12U U54A U69A | 0.000126 ± 4.4e-05 | 0.000125 ± 2.7e-05 | 0.000458 ± 9.4e-05 | 0.000322 ± 6.8e-05 | 0.000159 ± 4.6e-05
C8U G9A | < 1e-05 | < 1e-05 | < 1e-05 | < 1e-05 | < 1e-05
C50U U54A | < 1e-05 | – | – | 5.02e-05 ± 9.2e-06 | < 1e-05
A6C A15U A36C G43A U46G C50U A53U C61U | < 1e-05 | < 1e-05 | < 1e-05 | < 1e-05 | –
A6G G9A G38A G41A U57A | < 1e-05 | < 1e-05 | < 1e-05 | – | < 1e-05
A36C U54C A64U C67G | < 1e-05 | – | – | – | –
C10G U55G | < 1e-05 | – | – | – | –
A36C U47C | < 1e-05 | < 1e-05 | < 1e-05 | – | –
A15C C50G A53G G62A C70G | 0.000105 ± 3e-05 | 8.17e-05 ± 2.4e-05 | 0.000125 ± 4.1e-05 | 8.78e-05 ± 1.9e-05 | –
G44A A52G | < 1e-05 | – | – | – | < 1e-05
U30A G66C C70G | < 1e-05 | – | – | – | –
A15G U55A | 0.000962 ± 0.00014 | 0.0107 ± 0.0017 | – | 0.0387 ± 0.0094 | 0.00144 ± 0.00025

Variant | self-cleavage kobs at 40 uM GlcN6P (glucosamine-6-phosphate [1]) [s⁻¹] | self-cleavage kobs at 640 uM GlcN6P (glucosamine-6-phosphate [2]) [s⁻¹] | self-cleavage kobs at 2500 uM GlcN6P (glucosamine-6-phosphate [3]) [s⁻¹] | self-cleavage kobs at 10000 uM GlcN6P (glucosamine-6-phosphate [4]) [s⁻¹] | self-cleavage kobs at 160 uM GlcN6P (glucosamine-6-phosphate [5]) [s⁻¹]
A12C A42G C70A | < 1e-05 | – | – | 2.91e-05 ± 1.2e-05 | –
A6U G62A | < 1e-05 | – | – | – | < 1e-05
U46A U49C | < 1e-05 | < 1e-05 | < 1e-05 | < 1e-05 | < 1e-05
G29A A33G C34G C67U | < 1e-05 | – | – | – | –
A15G A39C C61U G63C C68G | < 1e-05 | < 1e-05 | – | – | –
U30A A39U G51A A64G | < 1e-05 | – | – | < 1e-05 | –
C8G A36U G37U A52U U54A | < 1e-05 | – | – | < 1e-05 | –
C10A G62U | < 1e-05 | – | – | < 1e-05 | < 1e-05
C34G G62U | < 1e-05 | – | < 1e-05 | < 1e-05 | –
C34G G62A | < 1e-05 | < 1e-05 | < 1e-05 | < 1e-05 | –
A6G U55G G66C C70A | 0.000223 ± 8.2e-05 | 0.000697 ± 0.00025 | 0.000623 ± 0.0002 | 0.000165 ± 5.3e-05 | –
C11G U30C | < 1e-05 | < 1e-05 | – | – | –
A14C A36G | < 1e-05 | < 1e-05 | < 1e-05 | < 1e-05 | < 1e-05
C8A G38U C50G | 4.1e-05 ± 2e-05 | – | – | – | –
G35A U47C | < 1e-05 | < 1e-05 | < 1e-05 | – | < 1e-05
G13C C50G G66C | 3.47e-05 ± 1.6e-05 | – | – | – | –
U49A G62U | < 1e-05 | – | – | < 1e-05 | –
U56C G59C C68G | < 1e-05 | – | – | < 1e-05 | –
A15C A52C C70U C71G | < 1e-05 | – | – | – | –
C16U U56A | 0.000484 ± 9.4e-05 | 0.00448 ± 0.0011 | 0.00493 ± 0.0012 | 0.0273 ± 0.0079 | 0.000861 ± 0.00013
A33U G38U G40U | < 1e-05 | – | – | – | –

Source: the supplement of paper PMC7125110
